Experiment [1] deals with T1, human C-C motif chemokine receptor 8 (CCR8) (human, UniProt P51685 1-355). Put plainly: cell-based or functional assay.
The target of experiment [2] is T1, human C-C motif chemokine receptor 8 …. The experiment in a line: FACS (MFI-PE) on HEK293 hCCR8 cells.
For experiment [3] the target is unchanged. The experiment in a line: cell-based or functional assay. This is another data set of the same source.
The target in experiment [4] is T2, human CCR4 (human, UniProt P51679 1-360).
T2 construct: whole, on cells; also called hCCR4
T2 sequence (looked up): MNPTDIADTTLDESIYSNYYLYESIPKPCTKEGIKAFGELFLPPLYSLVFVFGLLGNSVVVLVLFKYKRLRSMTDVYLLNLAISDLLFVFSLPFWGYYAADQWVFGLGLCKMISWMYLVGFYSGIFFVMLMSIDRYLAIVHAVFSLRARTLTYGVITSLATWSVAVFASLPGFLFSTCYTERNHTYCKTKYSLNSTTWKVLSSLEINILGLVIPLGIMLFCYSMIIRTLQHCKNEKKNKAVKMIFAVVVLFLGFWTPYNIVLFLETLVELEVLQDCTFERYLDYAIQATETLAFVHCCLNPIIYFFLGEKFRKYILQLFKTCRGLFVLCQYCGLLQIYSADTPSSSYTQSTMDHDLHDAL
The experiment in a line: FACS, CHO-K1 hCCR4 cells. As to the method: (§1) Briefly, HEK293 hCCR8 cell line, CHO-K1 cyno CCR8 cell line or CHO-K1 hCCR4 cell line was first incubated with 5-fold serially diluted and 8 doses with the above 10 chimeric Abs and hlgG1 control starting from 100 nM at 4° C. for 30 mins. After washing by FACS buffer, PE Goat anti-Human IgG Fc Secondary Antibody (eBioscience™, Invitrogen) was added to each well and incubated at 4° C. for 30 mins. Samples were washed twice with FACS buffer. The mean florescence intensity (MFI) of PE was evaluated by MACSQuant Analyzer 16.

Experiment [5] concerns the target T1, human C-C motif chemokine receptor 8 …. Put plainly: cell-based or functional assay. The source holds these as a separate data set.
For experiment [6] the target is unchanged. Put plainly: cell-based or functional assay. This is another data set of the same source.
Experiment [7] shares this target. Put plainly: FACS (MFI-PE) on HEK293 hCCR8 cells. As to the method: as §1
The source holds these as a separate data set.

For experiment [8] the target is unchanged. The experiment in a line: FACS (MFI-PE) on CHO-K1 hCCR8 cells, bars at five doses. As for the experimental part: PE Goat anti-Human IgG Fc Secondary Antibody (eBioscience™, Invitrogen) was added to each well and incubated at 4° C. for 30 mins. Samples were washed twice with FACS buffer. The mean florescence intensity (MFI) of PE was evaluated by MACSQuant Analyzer 16.

The target is the same in experiment [9]. The experiment in a line: cell-based or functional assay. This is another data set of the same source.
Experiment [10] deals with T3, cyno CCR8 (cynomolgus, UniProt G7NYJ2 1-355).
T3 construct: whole, on cells; also called cynomolgus CCR8 protein
T3 sequence (G7NYJ2 entry or part of it): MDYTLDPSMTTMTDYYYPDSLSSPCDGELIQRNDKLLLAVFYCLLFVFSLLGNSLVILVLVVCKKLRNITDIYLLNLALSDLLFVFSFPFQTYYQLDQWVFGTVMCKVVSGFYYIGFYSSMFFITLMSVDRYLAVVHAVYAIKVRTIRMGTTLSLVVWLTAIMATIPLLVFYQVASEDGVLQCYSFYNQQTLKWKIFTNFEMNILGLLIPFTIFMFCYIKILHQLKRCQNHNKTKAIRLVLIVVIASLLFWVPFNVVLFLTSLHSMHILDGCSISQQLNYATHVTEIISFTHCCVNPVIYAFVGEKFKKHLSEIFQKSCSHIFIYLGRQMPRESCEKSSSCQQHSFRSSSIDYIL
Put plainly: FACS (MFI-PE) on CHO-K1 cyno CCR8 cells. As for the experimental part:
as §1

Where two headings read alike, the source gives them in different places.

Data on eleven molecules can be found in patent publication US20250368744A1 (CONCEPT TO MEDICINE BIOTECH, published 2025).

T1 sequence (P51685 whole entry): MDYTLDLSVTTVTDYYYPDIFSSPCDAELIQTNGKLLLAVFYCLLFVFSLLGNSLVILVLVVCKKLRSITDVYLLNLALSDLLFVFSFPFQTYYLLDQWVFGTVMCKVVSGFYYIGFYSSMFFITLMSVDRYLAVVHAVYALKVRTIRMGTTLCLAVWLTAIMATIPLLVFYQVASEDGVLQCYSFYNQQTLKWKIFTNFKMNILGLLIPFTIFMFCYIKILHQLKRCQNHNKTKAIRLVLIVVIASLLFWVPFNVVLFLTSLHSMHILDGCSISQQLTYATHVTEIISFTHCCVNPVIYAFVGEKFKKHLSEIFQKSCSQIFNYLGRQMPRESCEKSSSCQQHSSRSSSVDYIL

B1: Hu195H8D10-1 NG-NA (antibody, V domains shown)
VH: EVQLVESGGGLVQPGGSLRLSCAASGFNFNTYVMNWVRQAPGKGLEWVGRIRTKSNNYATYYADSVKDRFTISRDDSKNSLYLQMNSLKTEDTAVYYCARGTITRLGGGLDYWGQGTLVTVSS
VL: DIVMTQSPLSLPVTPGEPASISCRSSKRLLHSNANTYLYWYLQKPGQSPQLLIYRMSNLASGVPDRFSGSGSGTDFTLKISRVEAEDVGVYYCMQHLEYPFTFGGGTKLEIK
notes: humanized, PTM site removed
Broadly, the EC50 is the concentration at which the effect is half-maximal. Regarding B1, in experiment [1], the “IC50, hCCL1-induced beta-arrestin recruitment (RLU), CHO-K1 hCCR8 cells” value was 1520 pM. This molecule displayed an EC50 in experiment [2] of 33 pM.

B2: Hu195H8D10-7 NG-NA (antibody, V domains shown)
VH: EVQLVESGGGLVQPGGSLRLSCAASGFNFNTYVMNWVRQAPGKGLEWVARIRTKSNNYATYYADSVKDRFTISRDDSKNSLYLQMNSLKTEDTAVYYCVSGTITRLGGGLDYWGQGTLVTVSS
VL: DIVMTQSPLSLPVTPGEPASISCRSSKRLLHSNANTYLYWYLQKPGQSPQLLIYRMSNLASGVPDRFSGSGSGTAFTLKISRVEAEDVGVYYCMQHLEYPFTFGGGTKLEIK
notes: humanized, PTM site removed
As to B2, the “IC50, hCCL1-induced beta-arrestin recruitment (RLU), CHO-K1 hCCR8 cells” value in [1] worked out at 5250 pM. Besides, the “IC50, hCCL1-induced Ca2+ flux (stimulation %), Chem-1 hCCR8 cells” value in [3] turned out to be 490 pM. Also, it took 92 pM to reach a half-maximal effect in experiment [2] (EC50).

B3: Hu200C9B9-3 NG-NA (antibody, V domains shown)
VH: EVQLVESGGGLVQPGGSLRLSCAASGFSFNTYVMNWVRQAPGKGLEWVGRIRTKSNNYATFYVDSVKDRFTISRDDSKNSLYLQMNSLKTEDTAVYYCARGTITRLGAGLDYWGQGTLVTVSS
VL: DIVMTQSPLSLPVTPGEPASISCRSSKSLLHSNANTYLYWYLQKPGQSPQLLIYRMSNLASGVPDRFSGSGSGTAFTLKISRVEAEDVGVYYCMQHLEYPFTFGGGTKLEIK
notes: humanized, PTM site removed
On to B3, for which, in experiment [1], the “IC50, hCCL1-induced beta-arrestin recruitment (RLU), CHO-K1 hCCR8 cells” value is 1740 pM. Moreover, the “IC50, hCCL1-induced Ca2+ flux (stimulation %), Chem-1 hCCR8 cells” value in [3] amounted to 210 pM. Also, the response in experiment [2] was half-maximal at 52 pM (EC50).

B4: 187B5F10 (antibody, V domains shown)
VH: EVQLVGSGGGLVQPKGSLKLSCAASGFNFNTYVMNWVRQAPGKGLEWVARIRTKSNNYATYYADSVKDRFTISRDDSESKLYLQMNNLKTEDTAMYYCVSGTITRLGGGMDYWGQGTSVTVSS
VL: DIVMTQAAPSVPVTPGESVSISCRSSKRLLHSNGNTYLYWFLQRPGQSPQLLIYRMSNLASGVPDRFSGSGSGTAFTLRISRVEAEDVGVYYCMQHLEYPFTFGGGTKLEIK
notes: tested as chimeric mAb
On to B4, for which, in [4], the binding result is reported as “no binding (tested: 100 nM (highest concentration tested))”. For the same molecule, the “IC50, hCCL1-induced migration of BaF3 hCCR8 cells (RLU) [cont'd) C]” value (from here on “IC50, hCCL1-induced migration”) in [5] worked out at 721 pM. Besides, the “IC50, hCCL1-induced Ca2+ flux (stimulation %), Chem-1 hCCR8 cells [lower graph]” value in experiment [6] was determined as 1550 pM. The molecule also displayed an EC50 in experiment [7] of 76.9 pM.

B5: Hu200C9B9-15 (antibody, V domains shown)
VH: EVQLVESGGGLVQPGGSLRLSCAASGFSFNTYVMNWVRQAPGKGLNWVARIRTKSNNYATFYVDSVKDRFTISRDDSENSLYLQMNSLKTEDTAVYYCVSGTITRLGAGLDYWGQGTLVTVSS
VL: DIVMTQSPLSLPVTPGEPASISCRSSKSLLHSNGNTYLYWYLQKPGQSPQLLIYRMSNLASGVPDRFSGSGSGTAFTLKISRVEAEDVGVYYCMQHLEYPFTFGGGTKLEIK
notes: humanized
Regarding B5, in experiment [8], the binding result was “binds”.

B6: 96G3-1F10 (antibody, V domains shown)
VH: DLQLKESGPGLVKPSQSLSLTCSVTGYSITSGYYWNWIRQFPGNKLEWMGFISYDGNNNYNPSLKNRISITRDTSKNQFFLNVKSVTTEDTATYYCSRATGLRKAWFAYWGQGTLVTVSA
VL: DIQMTQSSSYLSVSLGGRVTITCKASDHINNWLAWYQQKPGNAPRLLISDTTSLGTGVPSRFRGSGSGKDYTLSITSLQTEDVATYFCQQYWSYPYTFGGGTKLEIR
notes: tested as chimeric mAb
Turning to B6, the binding result in experiment [4] was “no binding (tested: 100 nM (highest concentration tested))”. For the same molecule, in experiment [5], the “IC50, hCCL1-induced migration” value worked out at 5280 pM. Moreover, the “IC50, hCCL1-induced beta-arrestin recruitment (RLU), CHO-K1 hCCR8 cells” value in experiment [9] came to 9000 pM. The “IC50, hCCL1-induced Ca2+ flux (stimulation %), Chem-1 hCCR8 cells [upper graph]” value in [6] stood at 15200 pM. Further, the EC50 in experiment [7] amounted to 109 pM; in experiment [10], 85.2 pM.

B7: 115C5E3B8 (antibody, V domains shown)
VH: DVQLQESGPGLVKPSQSLSLTCSVTGYSITSGYYWNWIRQFPGNKLEWMGYISYDGYNDYNPSLKNRISITRDTSKNQFFLKLNSVTTEDTATYYCARETGLRKAWFAYWGQGTLVTVSG
VL: DIQMTQSSSYLSVSLGGRVTITCKASDHINNRLAWYQQKPGNAPRLLISDTSSLETGVPSRFSGSGSGKDYTLRITSLQTEDVATYYCQQYWGTPYTFGGGTKLEIK
notes: tested as chimeric mAb
Take B7: the binding result in experiment [4] is on record as “no binding (tested: 100 nM (highest concentration tested))”. Also, in experiment [9], the “IC50, hCCL1-induced beta-arrestin recruitment (RLU), CHO-K1 hCCR8 cells” value was found to be 2280 pM. In addition, the “IC50, hCCL1-induced Ca2+ flux (stimulation %), Chem-1 hCCR8 cells [upper graph]” value in [6] came out at 17800 pM. Further, the midpoint of the response in [7], the EC50, lay at 126 pM.

B8: 101D5G10G4 (antibody, V domains shown)
VH: DLQLKESGPGLVKPSQSLSLTCSVTGYSITSGYYWNWIRQFPGNKLEWMGYISYDGNNNYNPSLKNRISITRDTSKNQFFLNLNSVTTEDTATYYCSRATGLRKAWFAYWGQGTLVTVSA
VL: DIQMTQSSSYLSVSLGGRVTITCKASDHINNWLAWYQQKPGNAPRLLISDTTSLGTGVPSRFRGSGSGKDYTLSITSLQTEDVATYFCQQYWSYPYTFGGGTKLEIR
notes: tested as chimeric mAb
For B8, the binding result in experiment [4] was “no binding (tested: 100 nM (highest concentration tested))”. In addition, the “IC50, hCCL1-induced beta-arrestin recruitment (RLU), CHO-K1 hCCR8 cells” value in [9] stood at 96900 pM. Further, the “IC50, hCCL1-induced Ca2+ flux (stimulation %), Chem-1 hCCR8 cells [upper graph]” value in experiment [6] turned out to be 25900 pM. The EC50 in experiment [7] and in experiment [10] was 118 pM each time.

B9: 86D4E12A5 (antibody, V domains shown)
VH: DLQLKESGPGLVKPSQSLSLTCSVTGYSITSGYYWNWIRQLPGNKLEWMGYISFDGSNNYNPSLKTRISITRDTSKNQFFLKLNSVTSEDTATYFCARLRGLLLGHFDVWGTGTTVTVSS
VL: DVQMTQSSSYLSVPLGGRVTITCKASDHINNRLAWYQQKPGNAPRLLISGATKLETGIPSRFRGSGSGKDYTLSIFSLQTEDVATYYCQQYWSTSYTFGGGTKLELR
notes: tested as chimeric mAb
As for B9, the binding result in [4] is on record as “no binding (tested: 100 nM (highest concentration tested))”. For the same molecule, the “IC50, hCCL1-induced migration” value in experiment [5] turned out to be 2680 pM. In addition, the “IC50, hCCL1-induced beta-arrestin recruitment (RLU), CHO-K1 hCCR8 cells” value in experiment [9] was determined as 11200 pM. Further, in experiment [6], the “IC50 (read off the curve), hCCL1-induced Ca2+ flux (stimulation %), Chem-1 hCCR8 cells [upper graph]” value was approximately 2000 pM. In addition, in experiment [6], the “IC50, hCCL1-induced Ca2+ flux (stimulation %), Chem-1 hCCR8 cells [lower graph]” value worked out at 12100 pM. In addition, the EC50 was 170 pM in experiment [7] and 122 pM in [10].

B10: 99D1-1E11 (antibody, V domains shown)
VH: DLQLKESGPGLVKPSQSLSLTCSVTGYSITSGYYWNWIRQFPGNKLEWMGYISYDGSNNYNPSLKTRISITRDTSKNQFFLKLNSVTSEDTATYYCVRERGLLLGHFDVWGTGTTVTVSS
VL: DIQMTQSSSYLSVALGGRVTITCKASDHINNRLAWYQQKPGNAPRLLISGATKLETGIPSRFRGSGSGKDYTLSIFSLQTEDVATYYCQQYWSTSYTFGGGTKLELR
notes: tested as chimeric mAb
As to B10, the binding result in experiment [4] is given as “no binding (tested: 100 nM (highest concentration tested))”. Besides, the EC50 in experiment [7] is 101 pM; in experiment [10], 94.2 pM.

B11: 84D1-2H3 (antibody, V domains shown)
VH: EVQLQQSGPVLVKPGASVKMSCKASGYTFTDYYVNWVKKSHGKSPEWIGIIKPYNGGTSYNQKFKGKATLTVDKSSSTVYMELNSLTSEDSAVYHCARFAYSRNPYAMDYWGQGTSVTVSS
VL: DVLLTQTPLSLPVSLGDQASISCRSSQSIVHSTGNTYLEWYLQKPGQSPKVLIYKVSTRFSGVPDRFSGSGSGTDFTLKISRVEAEDLGVYYCFQGSHVPPTFGGGTKLEIK
notes: tested as chimeric mAb of the mouse hybridoma clone
On to B11, for which the binding result in [4] was “no binding (tested: 100 nM (highest concentration tested))”. In addition, the “IC50, hCCL1-induced beta-arrestin recruitment (RLU), CHO-K1 hCCR8 cells; fitted value, points scatter between about 24000 and 33000 RLU with no clear inhibition” value in experiment [9] is 206 pM. Moreover, in experiment [6], the “IC50, hCCL1-induced Ca2+ flux (stimulation %), Chem-1 hCCR8 cells; fitted value, the curve stays at about 93 to 100 % beside hIgG1 [upper graph]” value stood at 22000 pM. Further, the values for the EC50 in [7] and in experiment [10] were 47.3 pM and 27.3 pM, respectively.
